Source: PMC11342271, “A high-throughput screening identifies MCM chromatin loading inhibitors targeting cells with increased replication origins” (iScience, 2024)

Key:
[1] = biological target: T1, recombinant Xenopus laevis CDC6 (rCDC6) (Xenopus laevis, UniProt P79946); assay: isothermal titration calorimetry, one-site fit; format: binding; conditions: 25 °C; PBS, 10% glycerol, 1 mM MgCl2, 1 mM DTT, 1% DMSO; CDC6 74 μM (75 μM in methods) titrated with 1 mM compound
T1 construct: gene cdc6.S; full-length; GST fusion from pGEX-6P-1 in E. coli Rosetta (DE3); GST cleaved with HRV 3C protease; Resource S and Superdex 200 purified
T1 sequence (P79946 1-554): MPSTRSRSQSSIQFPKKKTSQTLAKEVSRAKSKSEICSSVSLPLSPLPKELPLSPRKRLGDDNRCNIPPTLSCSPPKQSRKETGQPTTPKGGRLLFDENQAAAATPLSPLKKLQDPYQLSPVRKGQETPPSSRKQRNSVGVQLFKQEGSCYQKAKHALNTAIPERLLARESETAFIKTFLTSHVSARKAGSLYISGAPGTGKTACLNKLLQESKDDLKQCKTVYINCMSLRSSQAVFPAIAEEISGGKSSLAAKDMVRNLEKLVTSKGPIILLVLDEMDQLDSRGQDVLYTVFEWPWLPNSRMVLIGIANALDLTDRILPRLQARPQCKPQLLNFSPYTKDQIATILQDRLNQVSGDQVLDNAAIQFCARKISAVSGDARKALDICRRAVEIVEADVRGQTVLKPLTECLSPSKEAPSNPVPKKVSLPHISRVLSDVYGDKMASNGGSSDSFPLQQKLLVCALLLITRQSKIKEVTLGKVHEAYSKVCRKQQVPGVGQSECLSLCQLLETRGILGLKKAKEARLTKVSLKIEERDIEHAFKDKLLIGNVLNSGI

[2] = tested on: MCM2-7 (detected via MCM7) (Xenopus laevis); assay: ELISA (MCM7) on immobilized DNA; conditions: 5' biotin (BtnTg), Interphase Xenopus laevis egg extract (HSS; 2-fold diluted in ELISA), 30 min, room temperature (ELISA), wash buffer, salt and pH not given in the material

Compound: O=C1C(SCCO)=C(SCCO)C(=O)c2ccccc21 [NSC-95397, 2,3-bis(2-hydroxyethylsulfanyl) naphthalene-1,4-dione]
- Kd [1]: 323 ± 269 nM

Compound: bDNA (1.8 kb biotinylated DNA)
- binding signal ([2]; + 187 uM NSC-95397 (reduction at least 40%)): < 60 % of DMSO
- binding signal ([2]; + 187 uM aminacrine (DNA intercalator; reduction at least 40%)): < 60 % of DMSO
- binding signal ([2]; + 187 uM ethacridine (DNA intercalator; reduction at least 40%)): < 60 % of DMSO
